# The DeepSol protein solubility set
# Experiment: soluble on expression in E. coli; label from the status in PepcDB or PDB records
row,Sequence,soluble on expression in E. coli
1,MGSDKIHHHHHHMTKLTAHPQTEGAFTVASLEFLKQLAQHNSRDWFKTHQDEYENTIRTPALRFIEQIQPHIIAISPRLTAVAKKVGGSLMRPQRDSRFSKDKTPYKTNIGIQFRHFQGKDVHAPGLYLHIAEDGCFIAAGIWHPESKALNAIRTCIDENPNGYKKALQSLTNHGFMMDGDSLTRPPKGFDKHHPMLTELKRKDFIAVKNIPFERLCQRDAVHYCAEQLAHCSQLMAYLCFALELDF,not soluble
2,MGSDKIHHHHHHMTKSLNGLRILNTRPREQAQVLNKKIIESGGIPIDCPTMEIMASETNWINNLPDLTSVNQAIFVSTNAVRYFMMELASKNINWPNSIRVTAIGKGTSRVLNEFNIQVSDVPELPDSEHLLTLNSLQQIRNQTILLVKGEGGRQLIEEYLMLKGAKLCLLSVYKRVMPAIDQEFINSLWRDDLVDIILLTSEQSIHNLFKMFSIEGQMWLQNKPCLVISDRLAKVASLFGIKKILISHPERMIGALFDYKD,not soluble
3,MGSDKIHHHHHHMTKTDPAPMAPPPRGEEEEEEEEDEPVPEAPSPTQERRQKPVVHPSAPAPLPKDYAFTFFDPNDPACQEILFDPQTTIPELFAIVRQWVPQVQHKIDVIGNEILRRGCHVNDRDGLTDMTLLHYACKAGAHGVGDPAAAVRLSQQLLALGADVTLRSRWTNMNALHYAAYFDVPVLVRVLLKGARPRVVNSTCSDFNHGSALHIAASSLCLGAAKCLLEHGANPALRNRKGQVPAEVVPDPMDMSLDKAEAALVAKELRTLLEEAVPLSCALPKVTLPNYDNVPGNLMLSALGLRLGDRVLLDGQKTGTLRFCGTTEFASGQWVGVELDEPEGKNDGSVGGVRYFICPPKQGLFASVSKISKAVDAPPSSVTSTPRTPRMDFSRVTGKGRREHKGKKKTPSSPSLGSLQQRDGAKAEVGDQVLVAGQKQGIVRFYGKTDFAPGYWYGIELDQPTGKHDGSVFGVRYFTCPPRHGVFAPASRIQRIGGSTDSPGDSVGAKKVHQVTMTQPKRTFTTVRTPKDIASENSISRLLFCCWFPWMLRAEMQS,not soluble
4,MGSDKIHHHHHHMTLKIEHLTGGYTGVPVIKDINLEIKPGEALGLIGLNGAGKSTTIKHILGLLRPQKGKIILNDVVLTQQPTKFKREVAYIPETPILYPELTLKEHLELTMLSYKLDEKKAWERAHELLKMFRLDDKLEWLPIHFSKGMRQKVMIVSAFLADTSLLVIDEPFTGLDPLAVANLIDLIKQAIANNKMVLMTTHVLADAQQAISNYAVLNNGTIEIIGNLQDIREHYGLKPDDPFDKLYLALNREDHGNA,not soluble
5,MGSDKIHHHHHHMTLTYFLDKETDTPIYKQLYESLRKDILSGKLKTGAKLPSIRHFAQTLNVSVITVQNAYHQLEAEGYITSRDRSGYYVENLAGLTLLERQDAKIIHAPHHDQASEDQIIDFSPSNIDNAQFPLSIWRKCVNETLLNHETRFNHHGAKLGELPLRAAVADYVTKSRILDCTEEQVVIFEGIEHSMNILSLLFKQMGKTAIMEQPSYKVIEDIFSLHQLPIQRVPSPKGVLSLEDLQEQKNGVLYLTPSHQYPYGSFLSIQERIKIINWAQNSESYVIEDDYDGEFRYDIDPVPSLQGLSKNHVIYIGTFSKTLSPAIRVSYAILPPELMKRYQEVCSMFPSPVSVHLQLALAKFMEDGHYERHIRRMRKYYKEKQDFLIATIQEVMGDHAALHGTTAGLHLVLELKNNSRPYKQLLAAARAHGVNIYPVKDVTPNPYFILGFSGLPREKITEGIRRLHKAWIE,not soluble
6,MGSDKIHHHHHHMTNANGNLKKCPITISSYTLGTEVSFPKRVKVAAENGFDGIGLRAENYVDALAAGLTDEDMLRILDEHNMKVTEVEYITQWGTAEDRTAEQQKKEQTTFHMARLFGVKHINCGLLEKIPEEQIIVALGELCDRAEELIIGLEFMPYSGVADLQAAWRVAEACGRDNAQLICDTWHWARANQTAESIKNVPADRIVSIQLCDVHETPYKELREESLHDRLAPGEGYGDTVGFAKILKEHGVNPRVMGVEVISDSMVATGLEYAALKVYNATKKVLDEAWPEISPR,soluble
7,MGSDKIHHHHHHMTNDPIVFQMSVVKNKPQSYRKDKNKDICPFCDVENLTDIYAKDGDIIWLHNKFPTLRDTLQTVLIESSDHNGDISTYTKKYNRKLLRFSLQCFERMNRDDKYQSVVWYKNYGPHSGGSLIHPHMQIVGFKNVDGYKYIHPNNFEGETLFDKDGVEVNVAEHPVQGYTELNINLLNRNSVDLWADWIQSGAKYLLNIMYDGRCDSYNLFFYPRNDEGICAKFITRFDAPPYFVGYKLSQVNDEMTLTKEARRFKEFYDNDSKIK,not soluble
8,MGSDKIHHHHHHMTQPPQSLQIKLANPRGFCAGVDRAISIVERALELFSPPIYVRHEVVHNRYVVQNLKDRGAVFVDELDQVPDDSIVIFSAHGVSQAVRAEAKKRGLRVFDATCPLVTKVHLQVTRASRKGIECILIGHAGHPEVEGTMGQYDNPEGGVLLVESPADVEALVVKDPDNLCFVTQTTLSMDDTADVIAALQKRFPSIQGPRKDDICYATQNRQDAVRNVADDVDLFIVVGSKNSSNSNRLMELAIKKGTQSYLVDNADDIKPEWFNDIEKVAVTAGASAPEVLVQQVIDAIAKLAPSVITEVEGRKEDTVFAVPAELR,not soluble
9,MGSDKIHHHHHHMTRVVIIGGSGHVGTYLVPRLVEAGYEVVNVSRGQRAAYTLNAAWKSVEPVVIDRDTEEKAGTFGEKVRALKADIVVDMISFTLDSTKQIVGALRGEVQHFLHCGTIWVYGHNTAIPATEDQPKNPFGSYGTQKAEIESWLLNEARRNGFPATVFRPGHIVGPGWEPLNPAGHFDVGVFSQIARGEPLVLPNLGNETVHHVHADDVAQMVMRAIVSWSNAVGEAFNTVSPQAINLRGYAEALYNWFGHAPRLSYEPFDTWKGKQTEENWRATWEHIARSPSHSIAKARNLLGYDPRYSSLQAVYESVEWLVANGKLSR,not soluble
10,MGSDKIHHHHHHMTSAIDKNSQLEAQAWELLEESVIFYQGKPIGTVAAHDPESDALNYDQCFLRDFVPSALVFLMYGKAEIVRNFLVETLKLQSHEKQIDCFEPGAGLMPASFKVHFNGNEEFLVADFGEQAIARVPPIDSCMWWILLLRAYEKATGDLSLARQPDFQAGIKLILDLCLVHRFSMYPTMLVPDGAFMIDRRMGVYEHPLEIQVLFYASLRAASELLLPDGDGDSYLGKVNRRLGSLKYHIRNYYWLDLKRLGEIYRYKDNEFGKEIVNKFNINSESIPSWLTEWLPETGGYLAGNLGPGRIDFRFFALGNLMAILTSLASEKESQSIMNLFVQRWQDLIGYMPVKICFPALEGLEWRIVTGCDSKNRAWSYHNGGNWPVLLWLFASAAQKAGRTELAQAAIAIAERRLLKDKFPEYYDGNNGRLIGKEARINQTWSIAGLLTAKKFVENPDYLELISFAEGLEVPGCSL,not soluble
11,MGSDKIHHHHHHMTSETVLEIRNVSKHFGAVKALTAVDFRLARGEVHALCGENGAGKSTLMNVIAGVLQPSEGEVLIEGAPVKIASPAVAQSLGIALVHQEIALCPDATIAENMFMAATNRRRSALMNYAQLERDAQAVMNRLAPIDVSQKVGDLPISSQQLVEIAKALTLDCRVLIFDEPTAALTETEAQVLFGIIRDLKARGISIIYISHRMAEVFSLCDRVTVFRDGRYVATEMVSDVTPDDVVRLMVGREISQLYPDKQPSSERLGEPILSVRDLGGERFRDVSFELRYGEILGVGGLIGSGRTEIAEGICALRPVTQGEIRLHDKVLRLRRYSDAAKAGVVYLSEDRKGSGVFLDLSIAQNIAALDLKALTSLGLLNSREERALAEDLTRRLGVRMGGVDMPVSSLSGGNQQKVAIAKQLAVDPKVILMDEPTRGIDVGAKSEIHRLLRELARAGIGILVISSELPELIGLCDRVLVVREGRIAGEVSGNEMTEEVIMRLASGIGPATETNLKASGHAA,not soluble
12,MGSDKIHHHHHHMTSKNQSPLASDHPLAMPDTEISAREVFGIDIDMLVPAFSVGSEHVPDVDPAYRFDPDTTKAILAGFAFNRRVMVQGYHGTGKSTHIEQVAARLNWPCIRVNLDSHVSRIDLIGKDAIVVKDGKQITEFREGMLPWALQHPCALVFDEYDAGRPDVMFVIQRVLEVEGRLTLLDQNRVIRPHAAFRLFATANTVGLGDTTGLYHGTQQINQGQMDRWNIVATLNYLAHDDECSIVVAKLKDYDTPEGRDLVSKMVMLADLTRQGFMNGDISTVMSPRTVITWAENTRIFGDHSYGFRVTFLNKCDEVERPILAEYYQRCFGTDLPDGPARMLA,not soluble
13,MGSDKIHHHHHHMTSREEFLEKLAQAGTLNLIFQLTDQCALSCRYCFAKGSHPSGGLRIADDLLDAAIRSAFDTRHHQVSFEWTGGEPFFAGIDFYRKVDRLQKKYATKPYANTIQTSGYVHDRELIAWLAGHGFRISSTIDGPPELHDFQRPVNGGGPSLGAVLATRETIIEHQGHCGCICTVTRNSLGKEGAILDYYRSLGIEAFHSNPYYYFSKNLVGDESLALDADGYAAYFIAQFNAWFEGGRKLPMPGTLNYILRSLTAGAGLKQSVCTFGGRCLTNFLAITPDGDAWLCPKFAGFDEMRLGNVGKMAITDILSDANPAMARLIDERLDAIHTCEADECRFQYLCNAGCPYYSFIASGGRNIAVKDSLCTGKQLLFEYLESVVELIDPARLPEPSPLEHA,not soluble
14,MGSDKIHHHHHHMTTAPLSWEELETLTDYQIDTVNGLTNAKARLRLFGQPESDVRVTLYRDNHAWCPYCQKVWLWLEEKQIPYRIEKVTMFCYGEKESWYKRKVPSGMLPAIELDGRIIKESDDILIALEKVFAPLNQGMEDRMVLPLRQLERLLFRAWCVWLCSRAGSSQQEQRNREQFIEMVARIEEALGRTPSPYFLDSFGIVDVIFTPYLERMNASLYYYKGYSLREENPRLSAWFAAMESRPTYCGTQSDFHTHAHDLPPQMGGCWENGETQMLLNKARVDNGPWFGLPDVAYPEPENSRMEALKRTIEHRINIIRVNPLDDKLFDQALRCALTHMMTGEDYVPPSGADVALRYLRDRINVPRDMSIYAAKRLRESLEKTAALAGDGQPDPIPTKHRRDQDPSNFVIK,not soluble
15,MGSDKIHHHHHHMTTPANAVDTALITRRSIRAFLPTPVPRADIEAILEAASRAPSGTNTQPWKVYVVTGESLARLSRALLAAYDDPQRDALYQEEYPYYPHQWVSPYIDRRRKIGWDLYGLLGITKGDKARMHEQHAQNYRFFGAPVGLFFTIDRVMERGSWLDYGMFLQAIMTAARGRGLDTCPQAAFTQFHRVIAEHLGLPPEEQLVCGMSLGFADEDALVNTLRTEREPVERFTRFLD,not soluble
16,MGSDKIHHHHHHMTTTEQELTLTPLRGKSGKAYKGTYPNGECVFIKLNTTPILPALAKEQIAPQLLWAKRMGNGDMMSAQEWLNGRTLTKEDMNSKQIIHILLRLHKSKKLVNQLLQLNYKIENPYDLLVDFEQNAPLQIQQNSYLQAIVKELKRSLPEFKSEVATIVHGDIKHSNWVITTSGMIFLVDWDSVRLTDRMYDVAYLLSHYIPRSRWSEWLSYYGYKNNDKVMQKIIWYGQFSHLTQILKCFDKRDMEHVNQEIYALRKFREIFRKK,not soluble
17,MGSDKIHHHHHHMVDVEEKSQEVEYVDPTVNRVPNYEVSEKAFLLTQSKVSIEQRKEAAEFVLAKIKEEEMAPYYKYLCEEYLVNNGQSDLEHDEKSDSLNEWIKFDQELYNELCKKNESKIKELNEKIQKLEEDDEGELEQAQAWINLGEYYAQIGDKDNAEKTLGKSLSKAISTGAKIDVMLTIARLGFFYNDQLYVKEKLEAVNSMIEKGGDWERRNRYKTYYGIHCLAVRNFKEAAKLLVDSLATFTSIELTSYESIATYASVTGLFTLERTDLKSKVIDSPELLSLISTTAALQSISSLTISLYASDYASYFPYLLETYANVLIPCKYLNRHADFFVREMRRKVYAQLLESYKTLSLKSMASAFGVSVAFLDNDLGKFIPNKQLNCVIDRVNGIVETNRPDNKNAQYHLLVKQGDGLLTKLQKYGAAVRLTGSDRV,not soluble
